Source: the supplement of paper PMC10567573

B1: MLL5 (parent)
chain: TYLCERCQPRNLDKERAVLLQRRK
B2: LYSMD4 (parent)
chain: LLQRELAQEDSLNKLALQYGCKVA

Variants of: B1
Test: protein stability index of a GFP-peptide fusion (GPS, HEK-293T) (PSI 1-6); higher = more stable
Conditions: c terminus: a fixed tail appended
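Note: lentivirally expressed fusions sorted by FACS into six bins by GFP to DsRed ratio, PSI derived from sequencing read proportions per bin multiplied by bin number.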

Protein stability index: each site, then its substitutions
K14: C 1.93 | L 3.62 | P 1.96 | N 2.29 | V 3.34
D13: M 2 | I 2.23 | F 1.78 | P 1.92
Y2: H 2.58 | V 2.16 | W 2.76 | I 2.77 | P 3.19 | T 2.41 | C 1.76
R16: G 2.32 | V 2.27
R23: N 2.36 | M 2.16 | I 2.57
N11: T 3.08 | R 2.15 | A 2.05 | Q 2.41 | G 2.42
Q8: V 1.9 | M 1.67 | L 1.93
L12: D 2.01 | A 2.56 | N 2.25 | Q 3.79 | V 2.22 | W 1.61 | K 2.96
K24: I 1.6 | P 2.38 | Q 2.65 | G 1.69 | E 2.25
E15: Q 2.24 | K 3.21 | H 2.71
A17: T 1.95 | W 2.16 | D 2.25
Q21: D 2.78 | C 2.02
C7: A 4.59 | S 4.63 | F 3.27 | H 3.12 | I 3.76 | K 3.34
E5: K 1.79
R22: Y 1.97 | A 2 | L 1.89
R10: C 2.54 | Q 2.48
L19: S 2.9 | N 2.08 | C 2.03 | W 1.93
L3: V 2.17 | G 2.85 | W 1.96 | C 1.45 | K 2.83
C4: D 4.22 | I 1.54 | G 3.83 | L 2.71
R6: Q 2.53 | N 2.81
T1: R 2.76 | I 1.93 | H 2.18 | V 1.5 | S 1.87
P9: F 2.15 | C 2.76 | R 2.35

Variants of: B2
Test: as above
Conditions: c terminus: a fixed tail appended

Protein stability index of substitutions, site by site:
K14: T 1.66 | G 2.91 | D 2.23 | F 2.4 | Q 2.22 | H 2.07 | S 1.75 | C 2.37 | W 3.01
L17: G 2.98 | K 2.5 | C 1.49 | H 2.29 | Y 1.18 | A 1.84 | T 1.09 | E 1.82 | N 1.57 | F 3.31
A16: R 1.9 | K 2.48 | N 1.98 | S 1.98 | Y 1.26 | D 3.12
G20: K 1.62 | P 2.66 | F 1.13 | D 2.94 | W 3.05 | I 2.42 | S 1.72 | Q 4.53 | M 3.62 | A 1.09
K22: R 1.29 | A 2.7 | I 1.78 | T 1.32 | L 1.62 | G 2.93 | S 2.2 | Y 1.35 | H 3.15 | Q 2.21 | E 3.75 | D 2.08 | N 2.65
C21: G 2.66 | Q 2.98 | S 2.49 | M 1.47 | T 3.03 | V 1.85 | L 1.95 | E 3.43 | N 3.29 | P 2.59
Q3: Y 1.3 | S 3.41 | M 1.65 | N 2.3 | T 1.27 | H 2.24 | L 1.59
R4: L 2.03 | A 1.64 | D 2.08 | T 1.9 | V 3.51 | G 1.24 | K 2.82 | P 2.06 | H 1.56 | C 3.8 | Y 3.28
A24: K 1.82 | G 2.1 | R 1.95 | V 3.02 | D 2.37 | H 1.03 | T 2.19 | Y 2.75 | N 1.98 | P 2.64
L2: F 2.25 | D 2.63 | C 1.67 | M 2.27 | K 2.6 | E 2.92 | Y 1.61 | P 2.31 | H 1.02 | T 1.91 | S 2.06 | W 1.5 | V 2.29 | I 2.18
V23: F 2.96 | W 2.34 | N 3.62 | Y 2.45 | T 2.58 | M 1.75 | S 2.9 | A 3.18 | K 2.92 | I 1.89 | R 2.47 | G 2.35 | P 3.4 | C 1.83
E9: P 1.63 | K 1.35 | D 2.68 | N 2.4 | I 2.69 | M 1.85 | G 1.28 | C 1.53
N13: S 1.84 | K 1.94 | C 2.49 | R 2.23 | F 1.65 | P 1.95 | T 1.3 | Q 1.38 | G 1.23
Y19: R 1.85 | Q 3.78 | A 3.17 | D 4.57 | I 1.59 | T 3.17 | C 1.66 | M 2.02 | S 3.13 | L 2.34 | N 3.4 | F 2.06
L15: Q 3.65 | C 2.34 | I 2.11 | V 1.62 | M 2.85 | K 3.1 | N 3.75 | S 2.88 | P 3.97 | G 3.11
L6: G 1.95 | M 1.37 | I 1.52 | Y 1.92 | H 2.39 | E 3 | C 2.02 | D 2.5 | A 2.06 | S 1.67 | W 1.87 | K 2.11 | R 1.61 | T 1.92 | N 2.24 | V 1.62
E5: S 1.87 | Q 1 | Y 2.21 | D 1.44 | N 1.71 | P 1.99 | A 3.05 | F 3.86 | T 2.55 | V 2.88 | R 2.05
D10: Q 2.67 | H 1.22 | P 1.86 | Y 1.82 | K 1.86 | T 1.92 | L 2.1
S11: H 2.01 | C 1.79 | M 2.39 | I 1.04 | Y 2.28 | G 2.25 | R 2.65
A7: K 2.14 | D 2.09 | E 1.8 | V 1.48 | P 1.97 | C 1.73 | M 2.77 | H 2.72 | Q 2.02 | W 1.95 | R 1.49 | Y 2.12
L12: H 3.65 | M 1.97 | E 3.83 | D 4.13 | W 1.23 | A 2.5 | P 3.54 | I 2.06 | Y 2.38 | F 2.33 | T 3.48
L1: W 2.31 | H 1.91 | Q 1.32 | K 1.99 | A 1.96 | N 2.09 | T 1.8 | F 1.55 | E 1.5 | P 1.51 | G 1.52
Q18: A 1.65 | W 2.51 | N 3.62 | K 2.42 | T 1.18 | M 1.72 | S 1.74 | Y 2.22 | V 2.25
Q8: I 1.89 | K 1.66 | G 1.42 | S 2.25 | Y 2.21 | R 1.47 | D 4.68 | T 1.45 | H 1.54 | P 1.48 | F 1.59 | N 3.38 | E 1.84
